# Reference: publication PMC2801267
# How the values were obtained:
# [1] = target: Ku70/80 heterodimer (Ku) (human? (HeLa cells), UniProt P12956;P13010 1-609;1-732); assay: biotin pull-down
# [2] = target: Ku70/80 heterodimer (Ku);DNA-PKcs (human? (HeLa cells);human? (HeLa cells), UniProt P12956;P13010;P78527 1-609;1-732;1-4128, |); assay: biotin pull-down
# Ku70/80 heterodimer (Ku), sequence (P12956 whole entry, chain 1 of 2): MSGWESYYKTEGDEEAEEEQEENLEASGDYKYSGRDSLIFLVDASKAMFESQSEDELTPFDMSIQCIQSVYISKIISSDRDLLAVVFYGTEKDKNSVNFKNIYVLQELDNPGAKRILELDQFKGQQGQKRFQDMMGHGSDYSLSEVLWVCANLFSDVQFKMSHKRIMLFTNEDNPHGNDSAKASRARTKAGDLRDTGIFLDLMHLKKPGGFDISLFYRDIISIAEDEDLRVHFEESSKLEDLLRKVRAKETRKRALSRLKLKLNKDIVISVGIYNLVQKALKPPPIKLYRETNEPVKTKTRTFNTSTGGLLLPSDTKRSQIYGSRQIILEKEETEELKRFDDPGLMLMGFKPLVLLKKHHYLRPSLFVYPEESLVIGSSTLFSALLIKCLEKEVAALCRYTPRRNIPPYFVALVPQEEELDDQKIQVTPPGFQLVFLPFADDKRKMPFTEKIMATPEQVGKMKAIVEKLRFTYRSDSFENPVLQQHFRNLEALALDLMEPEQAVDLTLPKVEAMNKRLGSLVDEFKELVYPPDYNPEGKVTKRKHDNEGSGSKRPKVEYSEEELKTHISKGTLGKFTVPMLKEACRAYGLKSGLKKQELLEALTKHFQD
# Ku70/80 heterodimer (Ku), sequence (P13010 whole entry, chain 2 of 2): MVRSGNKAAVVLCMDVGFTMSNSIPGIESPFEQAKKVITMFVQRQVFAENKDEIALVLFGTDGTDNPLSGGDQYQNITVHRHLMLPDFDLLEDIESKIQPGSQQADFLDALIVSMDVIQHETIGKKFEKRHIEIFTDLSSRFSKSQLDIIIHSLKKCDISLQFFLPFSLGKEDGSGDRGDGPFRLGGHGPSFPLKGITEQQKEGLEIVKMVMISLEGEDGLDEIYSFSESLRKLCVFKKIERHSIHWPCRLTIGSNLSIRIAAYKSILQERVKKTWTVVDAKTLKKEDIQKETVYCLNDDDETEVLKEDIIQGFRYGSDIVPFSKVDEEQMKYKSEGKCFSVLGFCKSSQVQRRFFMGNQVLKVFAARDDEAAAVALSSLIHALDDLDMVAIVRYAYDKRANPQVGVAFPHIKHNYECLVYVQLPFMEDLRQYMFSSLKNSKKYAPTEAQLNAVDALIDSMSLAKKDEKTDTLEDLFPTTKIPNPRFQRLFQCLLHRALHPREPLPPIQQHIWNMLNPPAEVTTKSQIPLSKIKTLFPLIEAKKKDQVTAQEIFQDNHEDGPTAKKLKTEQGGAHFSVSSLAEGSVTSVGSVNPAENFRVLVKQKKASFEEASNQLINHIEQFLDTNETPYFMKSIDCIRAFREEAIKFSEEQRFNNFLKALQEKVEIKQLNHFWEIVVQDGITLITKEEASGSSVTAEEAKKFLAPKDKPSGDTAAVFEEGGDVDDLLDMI
binder,measurement,setting,value
"1 x biotin 40-bp dsDNA (dsDNA, 5'-biotin on oligo 1) DNA 1: GGATACACAACAGACCGCAACACTCAGATTACTTTTCGCC DNA 2: GGCGAAAAGTAATCTGAGTGTTGCGGTCTGTTGTGTATCC",binding result,[1],binds
same,binding result,[2],binds
